Test results published in patent US20220265772A1, “USES OF DAN FAMILY BMP ANTAGONISTS FOR INHIBITING OCULAR NEOVASCULARIZATION AND TREATING OCULAR CONDITIONS” (9636137 Canada Inc., priority 2019, published 2022).
Like-named read-outs stand apart in the source and are kept apart here.

Legend:
[1] = tested on: retinal vascular development; assay type: in vivo, mouse
Protocol: Animals were anaesthetized with isofluorane. A 10 μL Hamilton syringe with a glass-pulled capillary was inserted with a 45° injection angle into the vitreous. When accessing the role of DAND5 developmentally, animals were injected at P1 (DAND5:100 ng; or PBS: 1 μl) and were euthanized at P5 to quantify vascular growth. The DAND5 used for the injection was a human recombinant DAND5/COCO biologically active fragment produced in E. coli and purified by SDS-PAGE (Arg23-Ala189 with an N-terminal Met, predicted 18.2 kDa monomer, R&D systems; 3047-CC-050). During the neovascularization phase of OIR, animals were injected at P12 (2 μL) before sacrifice at P17 for quantification of neovascularization. For adult mice and laser-induced neovascularization, intravitreal injections were performed under a surgical microscope. Mice were anaesthetized with isofluorane. Pupils were dilated using 1% tropicamide. A 33-gauge needle was inserted from the limbus with a 45° injection angle into the vitreous. The direction and location of the needle was monitored through the surgical microscope.
Ocular globes were initially fixed for 15 min in 4% paraformaldehyde (PFA). Retinas or choroids were collected after eyes dissection in PBS and blocked 1 h in PBS 3% BSA 0.1% Triton X-100™. Fixation was prolonged in 1% PFA overnight for choroid extraction or eyes sectioning. Prior to sectioning, eyes were maintained in sucrose gradients (10-30%), cryo-preserved in a matrix gel and sliced in 14 μm sections on a cryostat (Leica™ CM3050S). Staining with either FITC-labeled isolectin GS 1B4 (Life technologies corporation), rhodamine phalloidin (Cedarlane Laboratories), phospho-histone H3 (Abcam), Collagen IV (Abcam) or cleaved caspase-3 (Cell Signaling) antibodies were performed on whole and/or sectioned retinas/choroids. Retinas and choroids were then mounted in fluoromount aqueous medium (Sigma-Aldrich). Quantitative analysis of tufts, vaso-obliterated or vessel areas were performed using imageJ/Swift_NV™ as previously described (1). Neovascular tuft formation was quantified by comparing the number of pixels in the affected areas with the total number of pixels in the retina. The avascular area in the retina was measured in the same way using an anti-DAND5/COCO polyclonal goat IgG antibody (AF3047, R&D systems).
As DAND5 prevents VEGF-induced EC sprouting, proliferation and migration, we evaluated whether it could inhibit retinal vascular development. Newborn mouse pups (P1) received intravitreal injections of recombinant DAND5 (100 ng), and retinas were harvested after 4 days (P5) (FIG. 2A).
Blood vessels constrict in the course of vessel regression and EC retract, leaving behind empty BM sleeves.

mitochondria = assay: Immunofluorescence localization of DAND5 in treated HUVECs; assay type: cell-based, human; settings: HUVECs exposed for 1 h
Protocol: FIG. 9: HUVECs were plated to confluence and exposed or not to Dand5 for 1 hour. Dand5 was not detected before treatment in HUVECs (not shown).
To test where DAND5 is localizes in treated HUVECs, we exposed HUVECs to human recombinant DAND5 for 1 h and performed immune-fluorescence using human anti-mitochondrial antigen antibody and a human anti-DAND5 antibody.

LDHA = assay: AMPLI-seq transcriptome analysis of HUVECs; assay type: cell-based, human; settings: HUVECs treated for 6 and 16 h
Protocol: FIG. 7 is a panel with a schematic and graphs showing that DAND5 modifies the metabolic transcriptional program in cultured endothelial cells. HUVECs were treated for 6 and 16 h with either PBS or DAND5, before RNA extraction. RNA was reverse-transcribed and cDNA amplified using IonTorrent Ampliseq™ Transcriptome Human Gene Expression kit. FIG. 7A: Heat map of metabolism-related genes.
We performed AMPLI-seq analysis of HUVECs exposed or not to recombinant DAND5. […] Lactate de-hydrogenase A (LDHA) regulates lactate metabolism during anaerobic respiration.

[2] = 100 ng at P1, P5, compared with PBS-injected eyes

B1: DAND5: human recombinant DAND5/COCO biologically active fragment produced in E. coli, predicted 18.2 kDa monomer, R&D systems 3047-CC-050 (protein)
chain: MRPEPQSPRPQSWAAANQTWALGPGALPPLVPASALGSWKAFLGLQKARQLGMGRLQRGQDEVAAVTLPLNPQEVIQGMCKAVPFVQVFSRPGCSAIRLRNHLCFGHCSSLYIPGSDPTPLVLCNSCMPARKRWAPVVLWCLTGSSASRRRVKISTMLIEGCHCSPKA
number of vascular branch points ([1]; 100 ng at P1, P5): reduced number of vascular branch points | microvessel density (ratio of vessel area to vascularized area) [1, 2]: pronounced reduction | vessel area (area covered by vessels) [1, 2]: pronounced reduction of vessel area | EC proliferation in retinal vasculature (pH3) ([1]; P1 injection, P5): reduced EC proliferation | empty type IV collagen (ColIV) BM sleeves ([1]; P1 injection, P5): significantly higher numbers of empty type IV collagen (ColIV) BM sleeves | inhibition of retinal neovascularization compared with VEGF inhibitor (mouse Flt1 Fc) ([1]; P1 injection, P5): significantly more pronounced than that of a VEGF inhibitor (mouse Flt1 Fc) | empty type IV collagen (ColIV) BM sleeves ([1]; P1 injection, P5, listed as Dand5): increased | blood vessel development ([1]; intravitreal 100 ng at P1, retinas at P5): dramatic inhibition of blood vessel development | apoptosis in retinal vasculature (CC3) ([1]; mouse, in vivo): no change in apoptosis | necroptosis in retinal vasculature (Rip3) ([1]; mouse, in vivo): no change in apoptosis (FIG. 11D, E) or necroptosis | photoreceptor morphology or apoptosis ([1]; mouse, in vivo): did not affect | retinal pericyte coverage ([1]; mouse, in vivo): did not affect retinal pericyte coverage | co-localization with mitochondria (mitochondria): robust co-localization of DAND5 with mitochondria | co-localization with mitochondria (mitochondria; listed as Dand5): co-localizes with mitochondria | LDHA expression (LDHA): down-regulation of LDHA
